B1: conductin GSK 3b-binding domain (amino acids 343-396) (other)
chain: ANGQVSLPHFPRTHRLPKEMTPVEPAAFAAELISRLEKLKLELESRHSLEERLQ
notes: also called GSK BD
B2: conductin disheveled homology region (amino acids 783-833) (other)
chain: LTLGHFKEQLSKKGNYRYYFKKASDEFACGAVFEEIWDDETVLPMYEGRIL
B3: conductin β-catenine binding domain (amino acids 397-465) (other)
chain: QIREDEEKEGSEQALSSRDGAPVQHPLALLPSGSYEEDPQTILDDHLSRVLKTPGCQSPGVGRYSPRSR
notes: also called b-BD

In this assay the target is T1, Adenomatosis Polyposis Coli (APC) (UniProt P25054 2-2843, limits assumed).
T1 construct: Stands for 'APC' where the sentence names no fragment; also called tumor suppressor protein APC
T1 sequence (P25054 2-2843 limits assumed): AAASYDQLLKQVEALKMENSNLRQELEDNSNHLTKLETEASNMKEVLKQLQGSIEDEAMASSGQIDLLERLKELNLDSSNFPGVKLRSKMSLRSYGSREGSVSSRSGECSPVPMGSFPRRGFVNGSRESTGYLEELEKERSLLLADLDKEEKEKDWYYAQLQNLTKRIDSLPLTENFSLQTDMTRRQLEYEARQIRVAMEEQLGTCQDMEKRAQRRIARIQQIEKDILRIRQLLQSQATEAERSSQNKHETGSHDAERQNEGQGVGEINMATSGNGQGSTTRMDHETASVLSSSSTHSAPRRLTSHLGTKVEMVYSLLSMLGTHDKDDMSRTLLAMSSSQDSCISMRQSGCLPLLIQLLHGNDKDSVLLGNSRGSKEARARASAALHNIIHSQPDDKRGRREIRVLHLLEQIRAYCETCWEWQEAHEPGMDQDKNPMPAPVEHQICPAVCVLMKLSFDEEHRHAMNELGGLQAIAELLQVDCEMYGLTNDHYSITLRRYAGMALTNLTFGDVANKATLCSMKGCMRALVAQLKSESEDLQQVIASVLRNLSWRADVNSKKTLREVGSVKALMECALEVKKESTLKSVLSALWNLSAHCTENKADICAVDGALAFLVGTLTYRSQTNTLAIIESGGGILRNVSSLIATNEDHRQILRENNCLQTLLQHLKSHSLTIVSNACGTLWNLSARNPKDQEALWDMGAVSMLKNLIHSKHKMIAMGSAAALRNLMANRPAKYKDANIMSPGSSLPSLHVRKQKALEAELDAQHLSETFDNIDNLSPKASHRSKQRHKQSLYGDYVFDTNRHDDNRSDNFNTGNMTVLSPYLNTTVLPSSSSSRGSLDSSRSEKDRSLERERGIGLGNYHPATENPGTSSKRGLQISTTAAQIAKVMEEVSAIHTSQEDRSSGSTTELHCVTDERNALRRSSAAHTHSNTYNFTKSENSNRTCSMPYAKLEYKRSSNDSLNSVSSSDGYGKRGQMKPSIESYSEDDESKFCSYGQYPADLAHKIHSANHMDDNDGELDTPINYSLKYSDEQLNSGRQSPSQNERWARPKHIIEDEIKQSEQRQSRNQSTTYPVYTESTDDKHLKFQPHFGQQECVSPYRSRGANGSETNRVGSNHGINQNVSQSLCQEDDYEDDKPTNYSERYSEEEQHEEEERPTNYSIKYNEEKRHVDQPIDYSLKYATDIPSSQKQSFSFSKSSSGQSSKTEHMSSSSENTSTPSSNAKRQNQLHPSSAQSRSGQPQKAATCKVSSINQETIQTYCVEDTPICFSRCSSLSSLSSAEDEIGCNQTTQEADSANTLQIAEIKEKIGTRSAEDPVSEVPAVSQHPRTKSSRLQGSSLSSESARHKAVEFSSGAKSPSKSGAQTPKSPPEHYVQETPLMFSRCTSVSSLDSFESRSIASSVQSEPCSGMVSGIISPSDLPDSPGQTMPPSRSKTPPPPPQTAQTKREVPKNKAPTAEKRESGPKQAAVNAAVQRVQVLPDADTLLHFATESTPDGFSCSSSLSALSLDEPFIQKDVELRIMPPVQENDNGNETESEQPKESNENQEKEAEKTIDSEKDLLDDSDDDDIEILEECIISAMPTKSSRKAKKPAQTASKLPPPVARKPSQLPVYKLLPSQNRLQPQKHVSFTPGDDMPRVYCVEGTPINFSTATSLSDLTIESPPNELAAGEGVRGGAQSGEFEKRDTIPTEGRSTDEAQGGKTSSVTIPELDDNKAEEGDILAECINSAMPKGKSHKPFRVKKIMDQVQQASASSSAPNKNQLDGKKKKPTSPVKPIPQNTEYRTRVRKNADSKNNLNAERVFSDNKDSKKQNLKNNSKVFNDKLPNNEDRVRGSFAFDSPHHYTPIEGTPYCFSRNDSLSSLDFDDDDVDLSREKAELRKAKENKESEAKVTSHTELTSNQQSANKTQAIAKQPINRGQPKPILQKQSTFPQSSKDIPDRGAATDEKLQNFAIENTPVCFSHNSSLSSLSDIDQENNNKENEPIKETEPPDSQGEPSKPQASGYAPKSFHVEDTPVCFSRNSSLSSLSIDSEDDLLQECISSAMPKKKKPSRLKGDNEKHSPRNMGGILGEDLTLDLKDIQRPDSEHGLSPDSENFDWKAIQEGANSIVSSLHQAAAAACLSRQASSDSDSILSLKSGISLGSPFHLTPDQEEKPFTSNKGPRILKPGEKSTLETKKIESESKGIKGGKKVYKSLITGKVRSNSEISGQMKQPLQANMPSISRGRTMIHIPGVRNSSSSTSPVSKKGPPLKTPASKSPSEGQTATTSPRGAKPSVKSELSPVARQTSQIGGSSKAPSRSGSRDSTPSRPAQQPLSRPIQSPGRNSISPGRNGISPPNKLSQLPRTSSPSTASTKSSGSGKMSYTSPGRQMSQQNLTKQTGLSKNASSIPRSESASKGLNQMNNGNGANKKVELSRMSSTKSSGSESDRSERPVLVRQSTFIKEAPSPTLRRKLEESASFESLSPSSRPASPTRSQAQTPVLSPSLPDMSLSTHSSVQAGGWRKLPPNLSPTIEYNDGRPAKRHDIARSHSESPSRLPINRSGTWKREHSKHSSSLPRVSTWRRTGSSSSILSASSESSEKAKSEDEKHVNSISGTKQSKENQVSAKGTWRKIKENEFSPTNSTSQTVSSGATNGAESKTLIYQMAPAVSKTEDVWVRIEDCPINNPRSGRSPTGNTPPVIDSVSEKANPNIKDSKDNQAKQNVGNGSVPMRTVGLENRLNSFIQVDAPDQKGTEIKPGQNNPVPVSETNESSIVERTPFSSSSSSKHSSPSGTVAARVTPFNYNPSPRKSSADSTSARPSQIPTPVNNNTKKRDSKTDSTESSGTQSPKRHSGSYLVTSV
Kind of assay: yeast 2-hybrid, partial pieces of conductin.
As to B1, the binding result is “no binding”.

As for B2, the binding result is on record as “no binding”.

B3: the binding result was “no binding”.
